Source: PMC12559329

B1: (CAG)4 loop DNA (dsDNA)
DNA 1: ACGTCAGAGTCGCTGCGCTCAGTCGTTCAACTGCTCAGCAGCAGCAGTAACTATCGTCTTGAATCCAACCCGGTAAGATACG
DNA 2: GCGTATCTTACCGGGTTGGATTCAAGACGATAGTTAAGCAGTTGAACGACTGAGCGCAGCGACTCTGACGT
modifications: biotin on both strands (position in bold, not recoverable)
B2: (CAG)4 loop DNA with nick 3 nt downstream of loop (dsDNA)
DNA 1: ACGTCAGAGTCGCTGCGCTCAGTCGTTCAACTGCTCAGCAGCAGCAGTAA
DNA 2: TAACTATCGTCTTGAATCCAACCCGGTAAGATACG
DNA 3: B1 DNA 2
modifications: biotin on bottom strand; others unclear (bold lost)

Target: MutSβ (MSH2-MSH3) (human, UniProt P43246;P20585 1-934;1-1137)
Experiment: EMSA; 2 mM ATP, 5 mM Mg2+, pUC19 competitor; 25 mM Tris-acetate pH 7.5, 1 mM DTT, 2 mM ATP, 5 mM MgCl2, 0.1 mg/ml albumin, 0.5 nM DNA, 3 ng/µl pUC19 competitor, 37 °C 30 min; native 6% PAGE
Details: protein: recombinant, tags: N-terminal FLAG on MSH2, N-terminal 6xHis on MSH3, copies: 1;1, label: 3'-32P on bottom strand (TdT, dCTP), 5' overhang 1 nt (G) on bottom

| Binder | binding result (12-nt extrahelical (CAG)4 loop in top strand) | binding result (12-nt loop and nick in top strand, as printed both left and right oligos contain the TAA at the junction (3 nt redundant)) |
| --- | --- | --- |
| B1 | binds |  |
| B2 |  | binds |
